Values quoted from earlier work in patent US20190351024A1, “IMMUNOCYTOKINES WITH PROGRESSIVE ACTIVATION MECHANISM” (PHILOGEN S.p.A., priority 2016, published 2019).

Details: past clinical trials; cited from earlier work

For TNF-α, which maximum tolerated dose is on record?
Its maximum tolerated dose is 150-300 μg/m^2/day.
